Results: the nanobody polyreactivity screen of Harvey et al. (2022)

Test: yeast display, Sf9 membrane polyspecificity reagent, FACS + sequencing; frameworks hold sequencing errors
Procedure, shortened: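 Galactose induction of a Saccharomyces cerevisiae BJ5465 synthetic nanobody display library ran 36–48 hours. The cells were then stained for 1 hour at 4 °C with 10% biotinylated, detergent-solubilized Sf9 membrane reagent, pulled down on streptavidin microbeads and FACS-sorted into low and high (top ~1%) gates on expression and reagent-binding fluorescence. Labels for polyreactivity follow the gate of origin.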

Row | Sequence | polyreactivity (PSR sort gate)
1 | QVQLVESGGRLVQAGGSLRLSCAASGSIFDAYAMGWYRQAPGKERELVAAITTVGSTNYADSVKGRFTISRDNAKNTVYLQMNSLKPEDTAVYYCNADCNTDIVPTPYDYWGQGTQVTVSS | low polyreactivity
2 | QVQLVESGGRLVQAGGSLRLSCAASGSIFPGNAMGWYRQAPGKDREYVGAISWSGGSTNYADSVKGRFTISRDNAKYTVYLQMNSLKPEDTAVYYCAKRFVRLDPTTQLYGKAYEYWGQGTQVTVSS | high polyreactivity
3 | QVQLVESGGRLVQAGGSLRLSCAASGSIFVHNAMGWYRQAPGKERDLVAANTWSGGSTYYADSVKGRFTISRDNAKNTVYLQMNSVKPEDTAVYYCAAEDVAAQWAYESPTSYWYYYWGQGTQVTVSS | low polyreactivity
4 | QVQLVESGGRLVQAGGSLRLSCAASGSIFYTYAMGWYRQAPGKEMELVAAITYRVGSTYYADSVKGRFTISRDNAKNTVYLQMNSLKPEDTAVYYCNADKGGHVRHYDYWGQGTQVTVSS | low polyreactivity
5 | QVQLVESGGRLVQAGGSLRLSCAASGSILTSYPMGWNRQAPGKERELVAAISTTGGSTYYADSVKGRFTISRDNAKNTVYLQMNSLKPEDTAVYYCAKASGSGGEMDYWGQGTQVTVSS | low polyreactivity
6 | QVQLVESGGRLVQAGGSLRLSCAASGSNSFRYAIGWDRQAPGKERELVARISSGGSTNYADSVKGRFTISRDNAKNTVYLQMNRLKPEDTAVYYCAKSFRYSVYPYSHYDYWGQGTQVTVSS | high polyreactivity
7 | QVQLVESGGRLVQAGGSLRLSCAASGSTFSPYTMGCYRQAPGKERELVAGISKSGGRTYYADSVKGRFTISRDNAKNTVYLQMNCLKREVTAVYYCATRSTTDFYCGQGTQVTVSS | high polyreactivity
8 | QVQLVESGGRLVQAGGSLRLSCAASGSTFWESVLGWNRQSPGKDRELVAAITTNDDSTYYADSVKGRFTISRDNAKNTVYLQMNSLKPEDTAVYYCNAVQITGQFDYWGQGTQVTVSS | low polyreactivity
9 | QVQLVESGGRLVQAGGSLRLSCAASGYIFDWNAMGWYRQAPGKERELVAAISSGGRTNYADSVKGRFTISRDNAKITVYLQMNSLKPEDTAVYYCAAVYTDPYVEYDYWGQGTQVTVSS | low polyreactivity
10 | QVQLVESGGRLVQAGGSLRLSCAASRRIFTFYAMGWSRPAPGKERELVAAITGRGGSTYYADSVKGRFTISRDNAKNTVYLQMNSLKPEDTAVYYCAKRTSYRSHRYYYWGQGTQVTVSS | high polyreactivity
11 | QVQLVESGGRLVQAGGSLRLSCAASVRIFFQNAMGWSRQAPGKERELVAGISGSGGSTYYADSVKGRFTISRDNAKNTVYLQMNSLKPEDTAVYYCAARYGIISSFEYDYWGQGTQVTVSS | high polyreactivity
12 | QVQLVESGGRLVQAGGSLRLSCASSGSTFVYYAMGWYRPAPGKERELVAVISDDGGTYYADSVKGRFTISRDNAKNTVYLQMNSLKPEDTAVYYCAIDYYGGAYYWYNDRSGDYWGQGTQVTVSS | low polyreactivity
13 | QVQLVESGGRLVQAGGSLRLSCHASGIIFTAYAMGWYRPAPGKERELVAAITWSGGSTYYADSVKGRFTISRDNAKNTVYLQMNSLKPEDTAVYYCNGERPSFPFNYWGQGTQVTVSS | low polyreactivity
14 | QVQLVESGGRLVQAGGSLRLSFAACGSILRDNSMGWYRQAPGKEREFVADIRGSYDSTYYADSVKGRFTISRDNAKHTVYLQMNSRKREDTAVYYCNRVDAWQDYDYWGLGTQVTVSS | low polyreactivity
15 | QVQLVESGGRLVQAGGSLRLSWAASGITFFVNAMGWYRPAPGKERELVAVISRGDSTNYADSVKGRFTISRDNAKNTVYLLMNSLKPEDTAVYYCAADGSRAGLEGNDYWGQGTQVSVSS | low polyreactivity
16 | QVQLVESGGRLVQAGGSLRLTCAASGSTFPKYAMGWYRQAPGKERELVASISVTTGSTYYADSVKGRFTISRDNAKNTVYLQMNSLKPVDTAVYYCAKRTYSRKFRGAYNYWGQGTQVTVSS | high polyreactivity
17 | QVQLVESGGRLVQAGGSLRLTCAASGYTYSYYAMGWYRQAPGKERELVAAINYSGGRTYYADSVKGRFTISRDNAKNTVYLQMNSLKPEDTAVYYCAAYTRNGDYDYWGQGTQVTVSS | high polyreactivity
18 | QVQLVESGGRLVQAGGSLRVSCAASGSTFLFYAMVWYRQAPGKERELVATISRGGSTYYADSVKGRFTISRDNAKNTVYLQMNSQIPEDTAVYYCAARATRVTIAPRYGYWGQGTQVTVSS | low polyreactivity
19 | QVQLVESGGRLVQAGGTLRLSCAASGRIFGDYAMGWYRQAPGKERELVAVISVGGRTTYADSVKGRFTISRDNAKNTVYLQMNSLKPEDTAVYYCATRLSTRDGGYRGQGTQVTVSS | low polyreactivity
20 | QVQLVESGGRLVQAGRSLRLSCAASGRTFGRYAMGWYRQAPGKERELVAAITRGGGSTYYADSVKGRFTISRDNAKYTVSLQMNSLKPEDTAVYYCAARNFRSPYGYDYWGQGTQVTVSS | high polyreactivity
21 | QVQLVESGGRLVQAGVSLRLSCAAGGRTFGINAMGWYRQAPGKERELVARIRKTVGSTYYADSVKGRFTISRDNAKNTVYLQMNSLKPEDTAVYYCNADYDAYPRYIRYGYWGQGTQVTVSS | high polyreactivity
22 | QVQLVESGGRLVQARGSLRLSCAASRSTFPFYYMGWYRQAPGKERELVAAHTRRCGSTYYAVSVKGRFTISRDNGKNTFYLQMNSLKPEDTAVYYCAADDYTITIYYILDYWGQGTQVTVSS | low polyreactivity

Row | Sequence | polyreactivity (PSR sort gate)
23 | QVQLVESGGRLVQGGGSLRLSCAASGITFKGYTMGWYRQAPGKERELVATISRGGRTYADSVKGRFTISRDNAKNTVYLQMNSLKPEDSAVYYCAADKYWAQNDYWGQGTQVTVSS | low polyreactivity
24 | QVQLVESGGSLVQAGGSLRLSCAASGRIFYYNAMGWYRQAPGKERELVAAISWSGGSTYYADSVKGRFTISRDNAKNTVYLQMNSLKPEDTAVYYCAVDVYGYTPRPTREPLIYEYWGQGTQVTVSS | low polyreactivity
25 | QVQLVESGGSLVQARGSLRLSCAASGFIFPYYVMGGYRHAPGQERELVAAITCGGITYYAESVKGRFTISRDNAKNTVYFLMTSLKPEDTVVYYCAAENKYFYAWGSFVDDEYWGQGTQVTVSS | high polyreactivity
26 | QVQLVESGGVLDQAGGSLRLICAASGITLFHYVMGWYRQAPGKEMELVAVISSSGGSTYYADSVKGRFTISRDNAKNTVYLQMNSLKPEDTAVYYCAAETDSRKARVLYDYWGQGTQVTVSS | high polyreactivity
27 | QVQLVESGGVLDQAGGSLRLSFAASGFTFGAYAMGWYRHAPGKETELVASISWSGGSTYYADSVKGRFTISRDNAKNPVYLQMNSVKPEDTAVYYCNKDFVYPEDDGLFDFWGQGTQVTVSS | low polyreactivity
28 | QVQLVESGGVLDQAGRSLRLSCAASGRTFNRYAMGWYRQAPGKERDLVAAISSSGGSTYYADSVKGRFTISRDNAKNTVYLQMNSLKPEDTAVYYCNKGQYSHLNSYGDDYWGQGTQVTVSS | high polyreactivity
29 | QVQLVESGGVLLQAGGSLRLTCAASGSIFQYNALVGYRQAPGKVREFVAAITRGDSTYYADSVKGRFTISRDNAKNTVYLQMNSLKADDTAVYYCAKRGWFYGGRDYWGQGTQVTVSS | high polyreactivity
30 | QVQLVESGGVLVQAAGSLRLSCAASGRIFGYNAMGWYRQAPGSERDFVAAISPSGGSTYYADSLKGLFTISRDNAKITVYLQMNSLKPEDTGVYYCAARIGYRSWAWDAYEYWGQGTQVTVSS | low polyreactivity
31 | QVQLVESGGVLVQAGGSLRISCAASGIIFSYYAMGWYRQAPGKERELVAAIYRRGTSTYYADSVKGRFTISRDNAKNTVYLQMNSLKPEDTAVYYCNKSPYYTVWSTRCNQFSRFYYWGQGTQVTVSS | high polyreactivity
32 | QVQLVESGGVLVQAGGSLRISCAASGSIFGSYAMGWYRQAPGKEREFVAAIRRSSASTYYADSVKGRFTISRDNAKNTVYLQMYSLKPEDTAVYYCATQCYCYYGYRYRYAAYDYRGQGTQVTVSS | high polyreactivity
33 | QVQLVESGGVLVQAGGSLRLICAASGSTFEFYAMGWYRQEPGKERELVARITWNGGNTYADSVKGRYTISRDNAKNNVYLQMNSLKPEDTSVYYCATDYVVGFYYWGQGTQVTVSS | low polyreactivity
34 | QVQLVESGGVLVQAGGSLRLSCAASGFIFPYYAMGWYRPAPGKETELVAAIDQSGDSTYYADSVKGRFTISRDNAKNTVYLQMNSLKPEDTAVFYCAARAVGGVRGYRYDYWGQGTQVTVSS | high polyreactivity
35 | QVQLVESGGVLVQAGGSLRLSCAASGFTFLVYAMGWYRQAPGKERELLAAITSGSSTTYADSVKGRFTISRDNAKNTVYLQMNSLKPEDTAVYYCAARPRLDVLVKRFYYWGQGTQVTVSS | high polyreactivity
36 | QVQLVESGGVLVQAGGSLRLSCAASGFTFVSNDMGWYRQAPGKERELVAAIRYRGGDTYYADSVKGRFTISRDNAKNTVYLQMNSLKPEDTAVYYCATGKRAYSSYLFDYWGQGTQVTVSS | low polyreactivity
37 | QVQLVESGGVLVQAGGSLRLSCAASGGIFGNYAMGWYRQAPGKERELVAVIDSSDGSTHYADSVKGRFTISRDNAKITVYLQMNSLKPEDTALYYCATQGFWNYWTFDYWGQGTQVTVSS | low polyreactivity
38 | QVQLVESGGVLVQAGGSLRLSCAASGITFNSYAMGWYRQAPGKERELVASISWIGGSTYYADSVKGRFTISRDNAKNTVYFQMNSLKPEDTAVYYCAVDKGTDYYYDVDYWGQGTQVTVSS | low polyreactivity
39 | QVQLVESGGVLVQAGGSLRLSCAASGLIFPSYALGWYRQAPGKERELVAAITFSGSDTNYADSVKGRFTISRDNAKNTVSLQMKSLKPEDTAVYYCAAAYFDFWGWLHDYWGQGTQVTVSS | low polyreactivity
40 | QVQLVESGGVLVQAGGSLRLSCAASGLTFDPNAMGWYRQAPGKERELVATITQTDGSTYYADSVKGRFTISRDNAKNTVYLQMNSLKPEDTAVYYCDGLVSRGSDYWGQGTQVTVSS | low polyreactivity
41 | QVQLVESGGVLVQAGGSLRLSCAASGLTFQPYVMGWYRHAPGKERELVAAISVRTTRTYYADSVKGRFTISRDNAKNTVYLQMNSLKPEDTAVYYCATRGDYWSPYEDDDYWGQGTQLTVSS | low polyreactivity
42 | QVQLVESGGVLVQAGGSLRLSCAASGNTFKHYALGGYRQAPGKEREKVAAISRSGASTNYADSVKGRFTISRDNAKNTVYLQMNSLKPEDTAVYYCAAEYSARKAYLYDYWGQGTQVTVSS | high polyreactivity
43 | QVQLVESGGVLVQAGGSLRLSCAASGNTFWLNAMGWYRQSPGKERELVDAITYTDGSTYADSVKGRFTISRDNAKNTVYLQMNSLKPEDTAVYYCAVANPSPYEWIAYYYWGQGTQVTVSS | low polyreactivity
